The results in this text go back to PMC6898792 (2019).

The target of one test is VEGFR2 (dimer) (Homo sapiens, UniProt P35968). In words: global fit.
The target in a further test is VEGFR2 (monomer) (Homo sapiens, UniProt P35968). Description: global fit.
Sequence of VEGFR2 (monomer) (P35968 20-1356): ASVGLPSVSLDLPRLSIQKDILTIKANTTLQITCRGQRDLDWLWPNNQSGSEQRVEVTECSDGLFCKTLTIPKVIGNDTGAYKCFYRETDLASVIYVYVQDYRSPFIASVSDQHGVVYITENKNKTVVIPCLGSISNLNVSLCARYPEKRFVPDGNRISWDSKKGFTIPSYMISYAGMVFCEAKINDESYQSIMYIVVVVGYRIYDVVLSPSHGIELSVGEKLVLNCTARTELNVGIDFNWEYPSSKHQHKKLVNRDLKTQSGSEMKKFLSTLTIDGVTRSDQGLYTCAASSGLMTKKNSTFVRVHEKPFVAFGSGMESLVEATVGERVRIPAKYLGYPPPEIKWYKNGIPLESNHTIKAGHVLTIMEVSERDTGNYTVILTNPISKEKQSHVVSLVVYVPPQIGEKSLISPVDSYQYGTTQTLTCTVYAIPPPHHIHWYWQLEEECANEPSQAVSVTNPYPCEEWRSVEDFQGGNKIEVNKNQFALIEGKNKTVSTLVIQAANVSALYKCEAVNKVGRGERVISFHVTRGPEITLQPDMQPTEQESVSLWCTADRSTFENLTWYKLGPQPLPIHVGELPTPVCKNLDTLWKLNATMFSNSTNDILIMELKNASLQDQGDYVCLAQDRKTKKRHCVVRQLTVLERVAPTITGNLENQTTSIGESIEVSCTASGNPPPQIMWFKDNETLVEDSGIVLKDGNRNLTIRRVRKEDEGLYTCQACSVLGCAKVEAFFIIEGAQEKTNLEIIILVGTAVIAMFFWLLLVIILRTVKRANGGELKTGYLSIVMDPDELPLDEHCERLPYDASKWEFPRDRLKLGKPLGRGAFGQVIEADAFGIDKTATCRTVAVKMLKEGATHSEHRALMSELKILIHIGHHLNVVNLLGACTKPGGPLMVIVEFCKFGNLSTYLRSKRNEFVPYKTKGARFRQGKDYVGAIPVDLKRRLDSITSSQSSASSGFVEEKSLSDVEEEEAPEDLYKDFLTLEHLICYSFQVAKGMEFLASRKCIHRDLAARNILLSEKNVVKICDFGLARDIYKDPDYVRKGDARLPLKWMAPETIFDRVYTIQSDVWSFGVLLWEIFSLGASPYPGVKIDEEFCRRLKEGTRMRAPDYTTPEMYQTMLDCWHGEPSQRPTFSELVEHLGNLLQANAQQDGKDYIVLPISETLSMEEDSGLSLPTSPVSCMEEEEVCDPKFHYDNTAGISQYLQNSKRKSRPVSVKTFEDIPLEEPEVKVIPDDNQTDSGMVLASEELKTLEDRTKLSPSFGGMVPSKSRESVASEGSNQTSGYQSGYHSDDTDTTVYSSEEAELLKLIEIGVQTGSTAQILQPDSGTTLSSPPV

Sequence of VEGFR2 (dimer) (P35968 20-1356): as above

B1: VEGF (protein)
chain: MTDRQTDTAPSPSYHLLPGRRRTVDAAASRGQGPEPAPGGGVEGVGARGVALKLFVQLLGCSRFGGAVVRAGEAEPSGAARSASSGREEPQPEEGEEEEEKEEERGPQWRLGARKPGSWTGEAAVCADSAPAARAPQALARASGRGGRVARRGAEESGPPHSPSRRGSASRAGPGRASETMNFLLSWVHWSLALLLYLHHAKWSQAAPMAEGGGQNHHEVVKFMDVYQRSYCHPIETLVDIFQEYPDEIEYIFKPSCVPLMRCGGCCNDEGLECVPTEESNITMQIMRIKPHQGQHIGEMSFLQHNKCECRPKKDRARQEKKSVRGKGKGQKRKRKKSRYKSWSVPCGPCSERRKHLFVQDPQTCKCSCKNTDSRCKARQLELNERTCRCDKPRR
As for B1, the Kd with VEGFR2 (dimer) was 0.23 nM; in the test with VEGFR2 (monomer), 10 nM.

The term Kd denotes the equilibrium constant for the complex coming apart. Read a high Kd as weaker binding.
